Assay results reported in the RNAGym collection of RNA variant scans (doi:10.1073/pnas.2313332121).

B1: TPR t1 (parent)
chain: GACCAAUCUGCCCUCAGAGCUCGAGAACAUCUUCGGAUGCAGAGGAGGCAGGCUUCGGUGGCGCGAUAGCGCCAACGUCCUCAACCUCCAAUGCAUCCCACCACAUGAUGAUGCCUGAAGAGCCUUGGUUUUUUG

Variants of: B1
Test: polymerase ribozyme fitness, log enrichment relative to wild type (log ratio); higher = more active; in vitro selection for triplet polymerase activity
Procedure, shortened: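 Genotype fitness is the logarithm of its enrichment divided by wild-type enrichment, using inverse-variance-weighted averages of replicates. That logarithm is base 2. Enrichment was measured by Illumina sequencing of input and output libraries from one triplicate in vitro selection round, with frozen incubation at −7 °C, on PCR-built, transcribed mutant libraries of each subunit of a heterodimeric triplet polymerase ribozyme, retaining genotypes with ≥10 input reads and ≥1 read per output.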

Point of comparison: G45A C73U C88A U112C G122U, “polymerase ribozyme fitness (log ratio)” value 0.105. Against it:
- G44U G51A — lower, -5.35
- G44U G58C C62A — lower, -2.17
- G44U G60A — lower, -0.946
- G44U G60C A91U A121G — lower, -0.902
- G44U G60U C94U — lower, -0.792
- G44U G63C U78A — lower, -0.651
- G44U G69A C76A G120C — lower, -6.09
- G44U G71A U130A — lower, -2.12
- G44U G71U C104U U106A — lower, -1.53
- G44U G77C — lower, -2.05
- G44U G77C A90U — lower, -1.31
- G44U G107A — lower, -6.9
- G44U G120U U130G — lower, -1.7
- G44U G127C — lower, -2.57
- G44U G128U — lower, -3.49
- G44U G135U — lower, -2.86
- G44U U54C C64U C102U G113A G128U — lower, -6.53
- G44U U54G C76A — lower, -1.81
- G44U U55A — lower, -0.917
- G44U U59C G110A G127A U132A — lower, -4.19
- G44U U59G — lower, -0.461
- G44U U59G G120A — higher, 0.601
- G44U U96A — lower, -2.64
- G44U U96A U116G — lower, -3.66
- G44U U96C G120A G122A U129G — lower, -2.51
- G45A A46U U55C C89U U131A — lower, -0.91
- G45A A50C G63A C82G G117C — lower, -6.01
- G45A A50U — lower, -1.05
- G45A A50U C124U U125G — within 0.2 log units, -0.0022
- G45A A84C — lower, -0.717
- G45A A84C G120C G135A — within 0.2 log units, 0.21
- G45A A103U — lower, -7.16
- G45A A111G C114A — lower, -5.79
- G45A A118G — lower, -1.02
- G45A A119G — the same, 0.105
- G45A C49A C72G G128A — lower, -3.14
- G45A C49A C94U G110A C124G — lower, -1.89
- G45A C49A G110U — lower, -2.18
- G45A C53A C86A U133A — lower, -1.69
- G45A C53G — lower, -0.662
- G45A C56A — lower, -0.425
- G45A C56G U78A G122A U129G — lower, -1.63
- G45A C56G U87G C114G — lower, -5.48
- G45A C62A — lower, -1.81
- G45A C62A U112G C115G — lower, -3.1
- G45A C62U — lower, -0.924
- G45A C70G G110C — lower, -6.17
- G45A C72U A74U — lower, -1.2
- G45A C72U G110C — lower, -4.39
- G45A C73U C97U A103U G120C — lower, -5.59
- G45A C79G G107A — lower, -7.38
- G45A C80A C115A — lower, -3.93
- G45A C85G — lower, -3.89
- G45A C88A — lower, -0.795
- G45A C99A — lower, -6.7
- G45A C114U — lower, -2.37
- G45A C115A — lower, -1.15
- G45A C123G — higher, 0.984
- G45A G47U A66U C73A C82U — lower, -3.27
- G45A G48A C86A C89U — lower, -2.36
- G45A G52A C89U U92A G120U — lower, -3.99
- G45A G60C — within 0.2 log units, -0.0735
- G45A G61A A74U — lower, -1.29
- G45A G61U C70U G110U U125C — lower, -3.2
- G45A G69A — lower, -3.01
- G45A G69U C99U A111G — lower, -0.775
- G45A G71A G113A C124U — lower, -2.34
- G45A G71U C115G — lower, -2.11
- G45A G107A A121C — lower, -6.43
- G45A G120C — within 0.2 log units, 0.183
- G45A U55A — within 0.2 log units, 0.00657
- G45A U59A C104U — lower, -0.336
- G45A U59G G60A A100U — lower, -2.28
- G45A U81G — lower, -3.71
- G45A U92A — lower, -3.38
- G45C A46C A105C — lower, -5.01
- G45C A84G C97A — lower, -6.72
- G45C A100G G120A U133A — lower, -2.23
- G45C C49A C76U C102A — lower, -3.88
- G45C C49U C97U A100U A121C U133C — lower, -0.146
- G45C C62U — lower, -1.63
- G45C C70U A83C — lower, -1.86
- G45C C72A — lower, -0.797
- G45C C72U A90U G128C — lower, -4.85
- G45C C79A A121G — lower, -0.868
- G45C C86G C102U G120U — lower, -7.48
- G45C C89U — lower, -1.92
- G45C C114A — lower, -2.66
- G45C C115A U130C — lower, -2.49
- G45C G47A — lower, -3.52
- G45C G47U A50G G57U — lower, -3.62
- G45C G48U G52U C76U — lower, -4.18
- G45C G51A G63A U78A C123G — lower, -4.51
- G45C G51U G57U C99A G117C — lower, -7.29
- G45C G61C U131G — lower, -1.96
- G45C G69A G117U — lower, -6.59
- G45C G69C U133A — lower, -2.27
- G45C G69U C82A G127A — lower, -3.34
- G45C G93U A121U — lower, -1.16
- G45C U54C C73A U81A G93C A111C — lower, -4.76
- G45C U55C A119U — lower, -2.39
- G45C U87C — lower, -0.513
- G45C U92A — lower, -3.97
- G45C U126A — lower, -2.8
- G45C U130C — lower, -2.26
- G45U A46C G127C — lower, -2.82
- G45U A50G — lower, -1.25
- G45U A50U A84U G117C — lower, -7.49
- G45U A50U C114A G135A — lower, -5.32
- G45U A74G U132A — lower, -2.04
- G45U A84C C86A G117A — lower, -3.94
- G45U A91C — lower, -2.07
- G45U C53A C72U C89G — lower, -1.72
- G45U C53A G61C — lower, -5.95
- G45U C56A C73G — lower, -2.79
- G45U C56A G128C — lower, -5.66
- G45U C56G G77A C101U U112C — higher, 0.372
- G45U C56U G122U U129C — lower, -1.59
- G45U C64U — lower, -0.713
- G45U C64U G77U C79U C114G — lower, -4.61
- G45U C64U U81A — lower, -2.88
- G45U C70A C123U — lower, -1.23
- G45U C72A C88A G93A G107U A111C — lower, -5.12
- G45U C72U G120A — lower, -0.418
- G45U C72U U87A — lower, -1.19
- G45U C73U C79A — lower, -2.93
- G45U C73U G110A G122A G128C — lower, -6.61
- G45U C73U U87A A105U G135C — lower, -2.69
- G45U C85G G122A — lower, -3.83
- G45U C86U U87A C124U U130C — lower, -1.19
- G45U C89U U92A U106A U133G — lower, -3.32
- G45U C94U C102U — lower, -3.33
- G45U C104U C124A — lower, -1.14
- G45U C114U — lower, -3.17
- G45U C123U — lower, -0.952
- G45U C123U G127U — lower, -1.39
- G45U G47A U116C — lower, -5.47
- G45U G47U G60A C98G — lower, -7.59
- G45U G48A — lower, -1.51
- G45U G48A G69U — lower, -0.269
- G45U G51A G52U — lower, -4.66
- G45U G52A C62U U96G — lower, -2.4
- G45U G60U — lower, -0.287
- G45U G61A — lower, -2.11
- G45U G61C — lower, -2.72
- G45U G63A — lower, -2.32
- G45U G63A U78G G120C — lower, -1.71
- G45U G63U G113A — lower, -3.01
- G45U G69A — lower, -4.29
- G45U G71A — lower, -2.09
- G45U G77U G93U G120U — lower, -3.3
- G45U G93C — lower, -0.927
- G45U G93U A100C C104A — lower, -6.03
- G45U G110U — lower, -2.75
- G45U G135U — lower, -2.03
- G45U U59G U112A — lower, -0.539
- G45U U78G C88U — lower, -1.1
- G45U U106A — lower, -1.76
- G45U U106A U129C — lower, -1.68
- G45U U112A — higher, 0.359
- A46C A100U U131G — lower, -1.22
- A46C C49U A83U — lower, -4.1
- A46C C49U A121U — higher, 0.936
- A46C C53A G77U — lower, -0.585
- A46C C53U C56A U112A — within 0.2 log units, 0.259
- A46C C53U U54G G71U G120U — lower, -0.575
